Results published in PMC8131325 (The Journal of Biological Chemistry, 2021).
Blank lines part the entries; values can stand above or below the binder they belong to.

Legend:
[1] = target: T1, fatty acid binding protein 3 (UniProt P05413 1-133); experiment: other fluorescence titration; ANS fluorescence (5 μM ANS, emission at 460 nm) of 2 μM FABP3 with increasing concentrations of αSyn or αSynP130-140; 50 mM Tris-HCl pH 7.4; details: both partners purified
T1 construct: synthetic gene (Invitrogen GeneArt) in pET28a between NcoI and XhoI; Untagged FABP3; also called FABP3; H-FABP; source: E. coli BLR(DE3), purified (Resource-Q anion exchange column), delipidized, lyophilized

[2] = target: T2, FABP3 with N-terminal His6 tag (UniProt P05413 1-133); experiment: quartz crystal microbalance (QCM); His6-FABP3 (or FABP3 F16S) immobilised on the gold-plated quartz sensor through Ni-NTA groups; αSyn, its variants or peptides added at varying concentrations; room temperature; 50 mM Tris-HCl pH 7.4; kobs = koff + kon[αSyn], Kd from kon and koff (AQUA 2.0); details: both partners purified
T2 construct: synthetic gene (Invitrogen GeneArt) in pET28a between NdeI and XhoI; Apo (delipidized) form; held on the Ni-NTA quartz sensor by the His6 tag; also called His6-FABP3; not shown: His6, N-terminal, kept
T2 sequence (P05413 whole entry): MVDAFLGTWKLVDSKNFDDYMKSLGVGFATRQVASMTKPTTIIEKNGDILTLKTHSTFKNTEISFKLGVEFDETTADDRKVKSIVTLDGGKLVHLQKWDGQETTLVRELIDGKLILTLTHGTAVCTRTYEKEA

T1 sequence (P05413 whole entry): as above

B1: αSynP130-140 (peptide)
peptide: EEGYQDYEPEA
notes: also called α-synuclein decoy peptide; C-terminal peptide of αSyn; source: synthetic peptide (SCRUM Inc or BEX Co Ltd)
stoichiometry N [1]: ~1
Kd [2]: 6.1 nM
koff [2]: 0.0012 s⁻¹
kon [2]: 200000 M⁻¹ s⁻¹

B3: αSynP130-140 Y136F (peptide)
peptide: EEGYQDFEPEA
notes: source: synthetic peptide (SCRUM Inc or BEX Co Ltd)
Kd [2]: 7.7 nM
koff [2]: 0.0037 s⁻¹
kon [2]: 480000 M⁻¹ s⁻¹

B4: αSynP130-140 Y133F/Y136W (peptide)
peptide: EEGFQDWEPEA
notes: as for B3
Kd [2]: 6.1 nM
koff [2]: 0.0019 s⁻¹
kon [2]: 320000 M⁻¹ s⁻¹

B7: αSynP130-140 Y133W/Y136W (peptide)
peptide: EEGWQDWEPEA
notes: as for B3
Kd [2]: 6.2 nM
koff [2]: 0.0015 s⁻¹
kon [2]: 240000 M⁻¹ s⁻¹

More lines, in order of falling Kd [2], values ahead:

Kd [2]: 6.3 nM
koff [2]: 0.0024 s⁻¹
kon [2]: 380000 M⁻¹ s⁻¹
B6: αSynP130-140 Y136W (peptide)
peptide: EEGYQDWEPEA
notes: as for B3

Kd [2]: 2.1 nM
koff [2]: 0.0011 s⁻¹
kon [2]: 540000 M⁻¹ s⁻¹
B2: αSynP130-140 Y133F/Y136F (peptide)
peptide: EEGFQDFEPEA
notes: as for B3

Kd [2]: 2 nM
koff [2]: 0.0015 s⁻¹
kon [2]: 750000 M⁻¹ s⁻¹
B5: αSynP130-140 Y133F (peptide)
peptide: EEGFQDYEPEA
notes: as for B3
